Assay results published in publication PMC1888804 (Nucleic Acids Research, 2007).
Substitutions are numbered along the chain they refer to. In names and notes the source's numbering stands. Where two headings read alike, the source gives them in different places.

B1: τC16 (Domain V of the τ subunit of E. coli DNA polymerase III holoenzyme, residues 499–643) (domain or fragment)
chain: MKALEHEKTPELAAKLAAEAIERDPWAAQVSQLSLPKLVEQVALNAWKEESDNAVCLHLRSSQRHLNNRGAQQKLAEALSMLKGSTVELTIVEDDNPAVRTPLEWRQAIYEEKLAQARESIIADNNIQTLRRFFDAELDEESIRPI
B2: bio-τC16 (N-terminally biotinylated τC16) (domain or fragment, E. coli)
chain: B1 chain
modifications: biotinylated on the N-terminal biotin-tag
B3: τC16[L635P] (domain or fragment, E. coli)
chain: B1 chain with L138P
B4: τC16[D636G] (domain or fragment, E. coli)
chain: B1 chain with D139G
B5: τC16[S617P] (domain or fragment, E. coli)
chain: B1 chain with S120P
B6: τC16[F631I] (domain or fragment, E. coli)
chain: B1 chain with F134I
B7: τC16[I618T] (domain or fragment, E. coli)
chain: B1 chain with I121T
B8: τC16[L627P] (domain or fragment, E. coli)
chain: B1 chain with L130P
B9: τC14 (folded core of Domain V of τ, residues 499–625) (domain or fragment, E. coli)
chain: MKALEHEKTPELAAKLAAEAIERDPWAAQVSQLSLPKLVEQVALNAWKEESDNAVCLHLRSSQRHLNNRGAQQKLAEALSMLKGSTVELTIVEDDNPAVRTPLEWRQAIYEEKLAQARESIIADNNIQ
B10: bio-τC14 (biotinylated τC14) (domain or fragment, E. coli)
chain: B9 chain
modifications: biotinylated on the N-terminal biotin-tag
B11: τC16Δ11 (τC16 with a C-terminal deletion of 11 residues) (domain or fragment, E. coli)
chain: MKALEHEKTPELAAKLAAEAIERDPWAAQVSQLSLPKLVEQVALNAWKEESDNAVCLHLRSSQRHLNNRGAQQKLAEALSMLKGSTVELTIVEDDNPAVRTPLEWRQAIYEEKLAQARESIIADNNIQTLRRFFD

Tests used:
Assay in all cases: SPR
[1] = target: α subunit of Escherichia coli DNA polymerase III holoenzyme (E. coli) (UniProt P10443)
[2] = target: T1, α subunit of Escherichia coli DNA polymerase III holoenzyme (E. coli, UniProt P10443 1-1160)
[3] = target: T1, α subunit of Escherichia coli DNA …; remark: listed apart in the source
[4] = target: T1, α subunit of Escherichia coli DNA …; remark: listed apart in the source

Row | Molecule | Kd [2] | also measured
1 | τC16Δ7 (τC16 with a C-terminal deletion of seven residues) (from UniProt P06710 499-636) (domain or fragment) | – | Kd [1]: 6700 nM
2 | B1 | 0.13 nM | –
3 | B2 | – | Kd [3]: 0.265 nM; koff [3]: 0.000402 s⁻¹; kon [3]: 1.52e+06 M⁻¹ s⁻¹; Kd [4]: 0.264 nM
4 | B3 | 2.4 nM | –
5 | B4 | 3.8 nM | –
6 | B5 | 160 nM | –
7 | B6 | 99 nM | –
8 | B7 | 0.98 nM | –
9 | B8 | 1500 nM | –
10 | B9 | > 10000 nM | –
11 | B10 | – | Kd [3]: > 1000 nM
12 | AQARESIIADNNIQTLRRFFDAELDEESIRPI (peptide, UniProt P06710 612-643, looked up) [τCpep32 (synthetic 32-mer peptide of the C-terminus of τ)] | 3800 nM | –
13 | B11 | > 10000 nM | –
